According to FireProtDB (doi:10.1016/s0022-2836(02)00630-7):

B1: Phosphocarrier protein HPr, P08877 (parent)
chain: MAQKTFKVTADSGIHARPATVLVQTASKYDADVNLEYNGKTVNLKSIMGVMSLGIAKGAEITISASGADENDALNALEETMKSEGLGE

Variants of: B1
Details: Bacillus subtilis (strain 168), pH 7, CD, Potassium phosphate 10 mM, reversible: yes, structure 1KKM, whole UniProt chain shown; for ddG of mutation (higher = less stable) / denaturant m value / denaturant midpoint (higher = more stable): 25 °C

Variant	ddG of mutation (higher = less stable) (Thermal) [kcal/mol]	ddG of mutation (higher = less stable) (Urea) [kcal/mol]	denaturant m value (Urea) [kcal/mol/M]	denaturant midpoint (higher = more stable) (Urea) [M]	Tm (Thermal) [°C]	change of melting temperature, mutant - wild type (higher = more stable) (Thermal) [°C]	unfolding enthalpy (van 't Hoff) (Thermal) [kcal/mol]
MAQKTFKVTADSGIHARPATVLVQTASKYDADVNLEYNGKTVNLKSIMKVMSLGIAKGAEITISASGADENDALNALEETMKSEGLGE	1	0.8	1.13	3.84	68.1	-4.5	73.9
MAQKTFKVTADSGIHARPATVLVQTASKYDADVNLEYNGKTVNLKSIMAVMSLGIAKGAEITISASGADENDALNALEETMKSEGLGE	-0.8	-0.9	1.01	5.44	75.8	3.2	82.4
MAQKTFKVTADSGIHARPATVLVQTASKYDADVNLEYNGKTVNLKSIMEVMSLGIAKGAEITISASGADENDALNALEETMKSEGLGE	-1.4	-1.2	1	5.77	78.1	5.5	83.8
